# Data from publication PMC4150783.
# Legend:
# Pot1-DBD [1] = target: T1, Pot1-DBD (Schizosaccharomyces pombe, UniProt O13988 1-339); assay: SEC-MALS
# T1 sequence: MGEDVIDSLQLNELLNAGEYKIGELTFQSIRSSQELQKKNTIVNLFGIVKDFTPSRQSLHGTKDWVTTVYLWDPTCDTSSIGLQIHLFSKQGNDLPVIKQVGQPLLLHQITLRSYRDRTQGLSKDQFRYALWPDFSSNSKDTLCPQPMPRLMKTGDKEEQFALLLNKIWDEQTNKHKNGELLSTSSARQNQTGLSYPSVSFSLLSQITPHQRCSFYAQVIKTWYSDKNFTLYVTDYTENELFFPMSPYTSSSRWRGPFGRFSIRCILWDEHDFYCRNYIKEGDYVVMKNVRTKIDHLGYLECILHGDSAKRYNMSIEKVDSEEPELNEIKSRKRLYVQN
# Pot1pC = target: T2, Pot1pC (Schizosaccharomyces pombe, UniProt O13988 198-339); assay: NMR
# T2 sequence: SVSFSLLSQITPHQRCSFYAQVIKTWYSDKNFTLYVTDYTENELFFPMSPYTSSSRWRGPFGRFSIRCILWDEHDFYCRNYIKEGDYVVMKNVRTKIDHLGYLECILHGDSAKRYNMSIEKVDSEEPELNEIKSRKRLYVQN
# Pot1pC_Y224A = target: T3, Pot1pC_Y224A (Schizosaccharomyces pombe, UniProt O13988 198-339, Y224A); assay: ITC
# T3 sequence: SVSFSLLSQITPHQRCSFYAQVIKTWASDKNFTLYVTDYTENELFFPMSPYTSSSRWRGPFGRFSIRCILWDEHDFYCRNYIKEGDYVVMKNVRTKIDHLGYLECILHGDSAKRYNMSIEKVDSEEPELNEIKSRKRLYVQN
# Pot1-DBD_Y224A = target: T4, Pot1-DBD_Y224A (Schizosaccharomyces pombe, UniProt O13988 1-339, Y224A); assay: SEC-MALS
# T4 sequence: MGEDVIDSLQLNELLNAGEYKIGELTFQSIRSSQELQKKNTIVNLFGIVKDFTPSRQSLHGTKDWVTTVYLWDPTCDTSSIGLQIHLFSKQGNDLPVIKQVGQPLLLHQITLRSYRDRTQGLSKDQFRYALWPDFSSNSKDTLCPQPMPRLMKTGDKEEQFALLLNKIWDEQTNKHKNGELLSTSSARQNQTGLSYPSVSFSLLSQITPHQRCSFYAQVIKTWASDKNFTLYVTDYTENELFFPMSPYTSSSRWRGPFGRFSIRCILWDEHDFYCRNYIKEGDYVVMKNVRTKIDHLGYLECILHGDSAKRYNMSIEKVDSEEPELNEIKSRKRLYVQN
# Pot1-DBD [2] = target: T1, Pot1-DBD; assay: NMR
# Pot1pN = target: T5, Pot1pN (Schizosaccharomyces pombe, UniProt O13988 1-187); assay: NMR
# T5 sequence: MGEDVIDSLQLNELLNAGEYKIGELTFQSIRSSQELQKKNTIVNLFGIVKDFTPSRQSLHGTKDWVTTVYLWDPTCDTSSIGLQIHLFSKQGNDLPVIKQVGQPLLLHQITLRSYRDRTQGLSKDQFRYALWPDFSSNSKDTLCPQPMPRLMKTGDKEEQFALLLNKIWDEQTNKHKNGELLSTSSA
# Pot1-DBD [3] = target: T1, Pot1-DBD; assay: EMSA
# Pot1-DBD [4] = target: T1, Pot1-DBD; assay: SEC-MALS; remark: listed apart in the source
binder,measurement,setting,value
GGTTACGGATAC (ssDNA) [12mer_T9A],binding result,Pot1-DBD [1],binds
GGTTACGGT (ssDNA) [9mer],binding result,Pot1pC,binds
same,binding signal,Pot1pC_Y224A,~10 fold weaker than Pot1pC wild type
GGTTACGGTTACGGT (ssDNA) [15mer],binding result,Pot1-DBD_Y224A,binds
same,binding result,Pot1-DBD [2],binds
GGTTAC (ssDNA) [6mer],binding result,Pot1pN,binds
GGTTACGGTTAC (ssDNA) [12mer],binding result,Pot1-DBD [3],binds
GGTTACGGTTACCGT (ssDNA) [15mer_G13C],binding result,Pot1-DBD [4],binds
